Data on 1 molecule can be found in patent publication US20160115222A1 (published 2016).

Assay [1] deals with T1, SpA on S. aureus Newman strain cells (Staphylococcus aureus (Newman strain), UniProt A0A0H3K686 37-477).
T1 construct: also called wild type S. aureus Newman
Put plainly: whole cell ELISA.

Assay [2] deals with T2, rProtein A (HiTrap rProtein A FF column) (Staphylococcus aureus, UniProt P38507 37-327).
T2 construct: also called SpA
Kind of assay: affinity chromatography.

In assay [3] the target is T3, Sbi-E (amino acids 28-266) (Staphylococcus aureus, UniProt Q2FVK5 28-266).
T3 construct: range 28-266
Kind of assay: double immunodiffusion in agarose gel.

The target in assay [4] is T4, Recombinant SpA (Biovision), recombinant 4-domain SpA (Staphylococcus aureus, UniProt P38507 37-269).
T4 construct: domain: SpA IgBP domains 1-4; also called SpA 1-4; SpA1-4
Put plainly: double immunodiffusion in agarose gel.

B1: Anti-RSV variant antibody MAB5 (antibody, human IgG1, kappa, V domains shown)
VH: QVTLRESGPALVKPTQTLTLTCTFSGFSLSTAGMSVGWIRQPPGKALEWLADIWWDDKKHYNPSLKDRLTISKDTSKNQVVLKVTNMDPADTATYYCARDMIFNFYFDVWGQGTTVTVSS
VL: DIQMTQSPSTLSASVGDRVTITCSASSRVGYMHWYQQKPGKAPKLLIYDTSKLASGVPSRFSGSGSGTEFTLTISSLQPDDFATYYCFQGSGYPFTFGGGTKLEIKR
notes: also called anti-RSV heavy chain constant region variant; control anti-RSV variant antibody
Turning to B1, the binding result was “no binding” in assay [1]; “no binding” in assay [2]; “no binding (tested: 1 mg/ml (from paragraph 493, not on the sheet))” in assay [3]; “no binding (tested: 1 mg/ml (from paragraph 493, not on the sheet))” in assay [4].
